{
  "source": "patent US10155020B2",
  "about": "“Compositions and methods for treating hepatitis B” (The Regents of the University of Colorado, a body corporate, priority 2012, dated 2018)",
  "molecules": {"B1": {"name": "HBx(G124L, I127A), P03165 1-154 (protein)", "chain": "MAARLCCQLDPARDVLCLRPVGAESRGRPFSGSLGTLSSPSPSAVPTDHGAHLSLRGLPVCAFSSAGPCALRFTSARRMETTVNAHQILPKVLHKRTLGLSAMSTTDLEAYFKDCLFKDWEELLEEARLKVFVLGGCRHKLVCAPAPCNFFTSA"}, "B2": {"name": "GST-HBx (other)", "chain": "B1 chain with L124G, A127I", "notes": "also called pGEX-4T-2-HBx"}, "B3": {"name": "HBV x protein (HBx) (other)", "chain": "B1 chain with L124G, A127I", "notes": "also called hepatitis B virus X protein"}, "B4": {"name": "Flag-HBx (other)", "chain": "B1 chain with L124G, A127I", "notes": "also called pcDNA3.1-Flag-HBx"}, "B5": {"name": "Flag-HBx(G124L, I127A) (other)", "chain": "B1 chain", "notes": "also called pcDNA3.1-Flag-HBx(G124L, I127A)"}, "B6": {"name": "HBx(G124L, I127A) (other)", "chain": "B1 chain", "notes": "also called mutant pHBV"}, "B7": {"name": "EGL-1 (other, C. elegans, UniProt O61667 16-106, looked up)", "chain": "MSNVFDVQSSVFYNEKNMFYSSSQDFSSCEDSSQFADDSGFFDDSEISSIGYEIGSKLAAMCDDFDAQMMSYSAHASDRSLFHRLLDFFAF", "notes": "also called BH3-only protein EGL-1"}},
  "key": {"[1]": {"target": "CED-9 (C. elegans) (UniProt P41958)", "assay": "isothermal titration calorimetry; peptaibol TK titrated into CED-9"}, "[2]": {"system": "cytosolic Ca^2+ in PLM neurons", "assay": "Cameleon FRET cytosolic calcium imaging in PLM neurons (bzIs17)", "type": "in vivo, C. elegans"}, "[3]": {"system": "PLM neurons", "assay": "PLM touch cell killing by HBx in C. elegans", "type": "in vivo"}, "[4]": {"system": "HBV DNA replication", "assay": "HBV DNA replication in pHBV-transfected HepG2 cells", "type": "cell-based, hepatitis B virus", "settings": "cells transfected with mutant HBV genome HBx(G124L, I127A); 5 μM", "procedure": "Quantification of HBV DNA replication and HBcAg. Southern hybridization analysis and quantitative real-time PCR were used to quantify the amount of HBV replication DNA intermediates isolated from HepG2 cells or from mouse livers. The level of cytoplasmic HBcAg was measured by chemiluminescence using a commercial assay kit.\nSouthern Blot Analysis. HepG2 cells (3×10 cm plate per sample) transfected with the pHBV replicon (wild-type or mutant) were washed twice with cold phosphate-buffered saline (PBS) and lysed in 750 μl NET buffer (50 mM Tris-HCl pH 7.5, 1 mM EDTA, 100 mM NaCl, 0.5% Nonidet P-40) per 10 cm plate for 1 hour. HepG2 cell lysates were clarified by centrifugation at 12000 g for 30 minutes at 4° C. The supernatant was adjusted to 6 mM CaCl2 and treated with 100 μg/ml of Micrococcal nuclease for 30 minutes at 37° C. The reaction was stopped by addition of EDTA to a final concentration of 25 mM. […]\nQuantitative Real-Time PCR Analysis. […] The pHBV plasmid was used as the standard for quantification and serial dilutions from 2×10^8 to 200 IU/ml were prepared. The primer sequences for quantitative PCR were chosen carefully from regions coding for HBV S antigen and Polymerase. […] PCR products were analyzed by fluorescence. […] The measured raw copy number from each reaction was calculated using the CT value of each PCR interpolated against the linear regression of the standard curve. […]"}, "[5]": {"target": "Bcl-2 family proteins", "assay": "cell-based or functional assay"}, "[6]": {"target": "T1, CED-9(68-251; G169E)-His6 (C. elegans, UniProt P41958 68-251)", "T1 construct": "range 68-251; also called CED-9(G169E); mutant CED-9(G169E) protein", "T1 sequence": "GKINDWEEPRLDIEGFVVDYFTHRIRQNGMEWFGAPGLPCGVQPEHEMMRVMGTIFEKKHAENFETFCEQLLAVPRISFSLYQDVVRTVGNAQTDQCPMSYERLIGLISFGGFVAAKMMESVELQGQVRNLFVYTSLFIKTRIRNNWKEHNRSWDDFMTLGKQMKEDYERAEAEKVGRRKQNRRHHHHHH", "assay": "GST pull-down, immunoblot"}, "[7]": {"target": "T2, His6-mBax(1-173) (mouse, UniProt Q07813 1-173)", "T2 construct": "range 1-173; also called mouse Bax(1-173)", "T2 sequence (Q07813 other isoform, or with tags, fused parts or gaps limits assumed)": "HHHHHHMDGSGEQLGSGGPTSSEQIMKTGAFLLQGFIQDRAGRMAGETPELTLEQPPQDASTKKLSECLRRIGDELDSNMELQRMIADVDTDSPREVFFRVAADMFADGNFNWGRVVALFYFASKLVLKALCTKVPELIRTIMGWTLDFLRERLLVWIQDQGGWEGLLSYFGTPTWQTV", "assay": "GST pull-down, immunoblot"}, "[8]": {"target": "T3, CED-9 (in C. elegans animals) (C. elegans, UniProt P41958 1-280)", "T3 sequence": "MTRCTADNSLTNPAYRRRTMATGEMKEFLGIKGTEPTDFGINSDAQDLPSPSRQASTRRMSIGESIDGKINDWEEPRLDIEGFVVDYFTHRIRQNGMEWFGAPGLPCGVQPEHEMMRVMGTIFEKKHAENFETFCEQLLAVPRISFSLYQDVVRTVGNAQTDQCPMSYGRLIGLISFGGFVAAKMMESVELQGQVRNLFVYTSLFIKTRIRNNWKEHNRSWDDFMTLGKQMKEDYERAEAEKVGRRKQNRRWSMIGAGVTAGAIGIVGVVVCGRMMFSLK", "assay": "cell-based or functional assay"}, "[9]": {"target": "T4, Mcl-1 (human, UniProt Q07820 1-350)", "T4 construct": "also called anti-apoptotic Bcl-2 family member Mcl-1", "T4 sequence (Q07820 whole entry)": "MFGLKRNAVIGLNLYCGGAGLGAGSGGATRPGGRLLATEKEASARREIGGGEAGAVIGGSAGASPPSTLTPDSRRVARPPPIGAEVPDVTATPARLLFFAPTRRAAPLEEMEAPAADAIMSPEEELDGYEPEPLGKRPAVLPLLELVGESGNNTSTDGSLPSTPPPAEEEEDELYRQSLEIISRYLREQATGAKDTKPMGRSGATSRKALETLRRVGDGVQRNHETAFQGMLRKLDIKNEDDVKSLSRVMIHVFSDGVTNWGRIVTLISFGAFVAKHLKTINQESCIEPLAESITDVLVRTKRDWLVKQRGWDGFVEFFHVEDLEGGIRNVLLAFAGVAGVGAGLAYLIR", "assay": "co-immunoprecipitation with anti-HBx antibody from pHBV-transfected HepG2 cells, immunoblot"}, "[10]": {"target": "T4, Mcl-1", "assay": "co-immunoprecipitation with anti-Flag antibody from HepG2 cells, immunoblot"}, "[11]": {"target": "T5, human Bcl-xL (human, UniProt Q07817 1-233)", "T5 construct": "also called endogenous Bcl-xL", "T5 sequence (Q07817 whole entry)": "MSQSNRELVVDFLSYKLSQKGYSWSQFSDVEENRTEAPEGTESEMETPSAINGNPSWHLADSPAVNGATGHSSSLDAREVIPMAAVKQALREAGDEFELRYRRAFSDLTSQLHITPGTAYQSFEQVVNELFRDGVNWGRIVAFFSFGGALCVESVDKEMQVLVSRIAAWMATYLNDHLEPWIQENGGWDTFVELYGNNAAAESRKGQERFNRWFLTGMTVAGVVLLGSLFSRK", "assay": "co-immunoprecipitation with anti-Flag antibody from HepG2 cells, immunoblot"}, "[12]": {"target": "T5, human Bcl-xL", "assay": "co-immunoprecipitation with anti-HBx antibody from pHBV-transfected HepG2 cells, immunoblot"}, "[13]": {"target": "CED-9 pre-incubated with peptaibol TK (C. elegans; Trichoderma pseudokoningii) (UniProt P41958)", "assay": "isothermal titration calorimetry; CED-9 pre-incubated with peptaibol TK, titrated with EGL-1"}, "[14]": {"target": "T6, CED-9 (Caenorhabditis elegans, UniProt P41958)", "T6 sequence (P41958 1-280)": "T3 sequence", "assay": "Isothermal titration calorimetry (ITC), titration of CED-9", "type": "binding, C. elegans", "settings": "no peptaibol TK"}, "[15]": {"target": "T7, CED-9 (C. elegans, UniProt P41958 1-251)", "T7 sequence (looked up)": "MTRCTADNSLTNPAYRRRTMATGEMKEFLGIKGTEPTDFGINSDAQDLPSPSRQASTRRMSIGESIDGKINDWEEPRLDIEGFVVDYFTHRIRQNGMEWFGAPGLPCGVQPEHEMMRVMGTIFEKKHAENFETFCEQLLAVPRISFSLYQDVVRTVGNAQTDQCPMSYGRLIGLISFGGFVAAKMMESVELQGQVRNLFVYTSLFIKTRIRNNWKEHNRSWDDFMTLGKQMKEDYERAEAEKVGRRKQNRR", "assay": "isothermal titration calorimetry"}},
  "note": "Residue numbers refer to the chain shown, from its start. In names and notes the source's numbering stands. Several values for one entry are separate records, joined by “and”; a condition that tells them apart may be missing. Equal entries are not always repeated.",
  "data": [
    {"molecule": "peptaibol TK (peptide)", "values": [
      {"measurement": "Ka", "setting": "[1]", "result": 42600, "unit": "M⁻¹"}
    ]},
    {"molecule": "C/C=C(/C)C(=O)O[C@H]1C(C)=C2[C@H]([C@@H]1OC(=O)CCCCCCC)[C@@](C)(OC(C)=O)C[C@H](OC(=O)CCC)[C@@]1(O)[C@H]2OC(=O)[C@@]1(C)O", "note": "[thapsigargin]", "values": [
      {"measurement": "FRET ratio in PLM neurons", "setting": "[2]; bzIs17 animals, vs untreated or vector-treated animals", "result": "significantly higher"}
    ]},
    {"molecule": "cyclosporin A [CsA]", "values": [
      {"measurement": "HBx-induced cytosolic Ca^2+ increase (FRET ratio)", "setting": "[2]; bzIs17, asp-3(tm4559), smIs451 animals", "result": "completely suppressed"},
      {"measurement": "percentage of missing PLM", "setting": "[3]; smIs98 animals that normally lost 50% of PLM neurons", "result": 15, "unit": "%"},
      {"measurement": "PLM death", "setting": "[3]; smIs98 animals with loss of ced-3", "result": 4, "unit": "%"}
    ]},
    {"molecule": "C[C@H](CCC(=O)O)C[C@H](C)C[C@H](C)C(=O)/C=C(\\O)[C@H](C)C[C@H](C)C/C=C/[C@@H](C)[C@@H](O)[C@@H](C)[C@@H](O)C[C@@H]1CC[C@@](C)([C@H]2CC[C@@](C)([C@@H](C)O)O2)O1", "note": "[ionomycin]", "values": [
      {"measurement": "HBV DNA replication", "setting": "[4]", "result": "largely rescued"}
    ]},
    {"molecule": "B1", "values": [
      {"measurement": "reduction in HBV DNA replication against the wild-type HBV genome, Q-PCR of viral particles from HepG2 cells", "setting": "[5]", "result": "8 fold and 9 fold"},
      {"measurement": "reduction of replicative DNA intermediates in mouse liver against the wild-type pHBV replicon, southern blot", "setting": "[5]", "result": "2 to 3", "unit": "fold"}
    ]},
    {"molecule": "B2", "values": [
      {"measurement": "binding result", "setting": "[6]", "result": "no binding"},
      {"measurement": "binding result", "setting": "[7]", "result": "no binding"}
    ]},
    {"molecule": "B3", "values": [
      {"measurement": "FRET ratio of cameleon Ca2+ sensor in PLM neurons (cytosolic Ca2+)", "setting": "[8]", "result": 40, "unit": "%"},
      {"measurement": "binding result", "setting": "[9]", "result": "no binding"}
    ]},
    {"molecule": "B4", "values": [
      {"measurement": "binding result", "setting": "[10]", "result": "no binding"}
    ]},
    {"molecule": "B5", "values": [
      {"measurement": "binding result", "setting": "[11]", "result": "no binding"}
    ]},
    {"molecule": "B6", "values": [
      {"measurement": "binding result", "setting": "[12]", "result": "no binding"}
    ]},
    {"molecule": "B7", "values": [
      {"measurement": "Ka", "setting": "[13]", "result": "1.52e+08", "unit": "M⁻¹"},
      {"measurement": "fold of the binding affinity between CED-9 and EGL-1 without peptaibol TK", "setting": "[13]", "result": 38, "unit": "fold"},
      {"measurement": "binding affinity of EGL-1 to CED-9", "setting": "[14]", "result": "4.04e+06", "unit": "M⁻¹"},
      {"measurement": "Ka", "setting": "[15]", "result": "4.04e+06", "unit": "M⁻¹"}
    ]}
  ]
}
